Measured values: article PMC7496394
Like-named read-outs stand apart in the source and are kept apart here.

Key:
[1] = biological target: recombinant and mature MDA1 (Arabidopsis thaliana) (UniProt F4JVI3); test: SEC
rMDA1 (mature MDA1) [2] = biological target: T1, rMDA1 (mature MDA1) (Arabidopsis thaliana, UniProt F4JVI3 44-493); test: EMSA
T1 sequence: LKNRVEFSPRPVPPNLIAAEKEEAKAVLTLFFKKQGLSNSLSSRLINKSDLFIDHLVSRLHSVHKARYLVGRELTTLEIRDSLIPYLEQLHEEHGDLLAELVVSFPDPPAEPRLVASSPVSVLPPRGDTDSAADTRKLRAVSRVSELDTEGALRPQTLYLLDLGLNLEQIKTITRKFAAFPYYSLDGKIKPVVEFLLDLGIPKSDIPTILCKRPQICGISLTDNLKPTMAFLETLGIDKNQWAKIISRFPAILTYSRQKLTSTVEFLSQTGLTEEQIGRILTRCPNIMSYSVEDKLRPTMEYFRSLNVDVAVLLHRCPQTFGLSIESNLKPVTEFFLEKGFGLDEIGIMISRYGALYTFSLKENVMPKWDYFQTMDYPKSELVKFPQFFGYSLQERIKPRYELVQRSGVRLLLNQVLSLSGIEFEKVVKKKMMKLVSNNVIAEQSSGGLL

rMDA1 (mature MDA1) [3] = biological target: T1, rMDA1 (mature MDA1); test: EMSA; remark: listed apart in the source
rMDA1 (mature MDA1) [4] = biological target: T1, rMDA1 (mature MDA1); test: EMSA; remark: listed apart in the source
rMDA1 (mature MDA1) [5] = biological target: T1, rMDA1 (mature MDA1); test: EMSA; remark: listed apart in the source
rMDA1 (mature MDA1) [6] = biological target: T1, rMDA1 (mature MDA1); test: EMSA; remark: listed apart in the source

Molecule: recombinant and mature MDA1 (from UniProt F4JVI3 130-493) (domain or fragment)
- stoichiometry N [1]: 2

B1: psbE E4 (dsDNA)
DNA 1: ATTGACGATCTCACAAAGATGCAATCT
DNA 2: AGATTGCATCTTTGTGAGATCGTCAAT
- binding result (rMDA1 (mature MDA1) [2]): binds

B2: ndhA A10 (dsDNA)
DNA 1: TATTGGGAATCATAACAGGTGTACTAG
DNA 2: CTAGTACACCTGTTATGATTCCCAATA
- binding result (rMDA1 (mature MDA1) [2]): binds

Molecule: GATATGCGCGAATTCCTGTAGAACGAACACTAGAAGAAA (ssDNA) [ssDNA random probe]
- binding result (rMDA1 (mature MDA1) [3]): no binding

B3: dsDNA random probe (dsDNA)
DNA 1: GATATGCGCGAATTCCTGTAGAACGAACACTAGAAGAAA
DNA 2: TTTCTTCTAGTGTTCGTTCTACAGGAATTCGCGCATATC
- binding result (rMDA1 (mature MDA1) [4]): binds

Molecule: GUUUUAAACAAGAGACAGAAACAAAGA (ssRNA) [3' ndhA sRNA]
- binding result (rMDA1 (mature MDA1) [5]): no binding

Molecule: UGGCUGAUAUUAUGACGAUAC (ssRNA) [5' ndhA sRNA]
- binding result (rMDA1 (mature MDA1) [5]): no binding

Molecule: GAUAUGCGCGAAUUCCUGUAGAACGAACACUAGAAGAAA (ssRNA) [ssRNA random probe]
- binding result (rMDA1 (mature MDA1) [6]): binds

B4: dsRNA random probe (dsRNA)
RNA 1: GAUAUGCGCGAAUUCCUGUAGAACGAACACUAGAAGAAA
RNA 2: UUUCUUCUAGUGUUCGUUCUACAGGAAUUCGCGCAUAUC
- binding result (rMDA1 (mature MDA1) [3]): no binding

B5: psbE E5 (dsDNA)
DNA 1: TTAATTTACTTATTCATCTTTTACAGA
DNA 2: TCTGTAAAAGATGAATAAGTAAATTAA
- binding result (rMDA1 (mature MDA1) [2]): no binding

Molecule: GUAGACUCUAAAAAUACCCUUGGUACUUU (ssRNA) [5' psbE sRNA]
- binding result (rMDA1 (mature MDA1) [5]): no binding

Molecule: UCUGAUUCGAGGGGGUCCCGUUGAAC (ssRNA) [3' psbJ sRNA]
- binding result (rMDA1 (mature MDA1) [5]): no binding
